Laboratory results published in patent US20050064507.

What was measured:
[1] = biological target: T1, ADD2 peptide KKKFRTPSFLKKSKK (SEQ ID NO:95) (not fully specified)
T1 chain: KKKFRTPSFLKKSKK

[2] = biological target: T2, AKAP12 peptide AGWRKKTSFRKPKED (SEQ ID NO:99) (not fully specified)
T2 chain: AGWRKKTSFRKPKED

[3] = biological target: T3, ANK1 peptide AQIVKRASLKRGKQ (SEQ ID NO:90) (not fully specified)
T3 chain: AQIVKRASLKRGKQ

[4] = biological target: T4, ARHGAP6 peptide DGQKRKKSLRKKLD (SEQ ID NO:92) (not fully specified)
T4 chain: DGQKRKKSLRKKLD

[5] = biological target: T5, ARHGAP6 peptide SAQITIPKDGQKRKKSLRKK (SEQ ID NO:156) (not fully specified)
T5 chain: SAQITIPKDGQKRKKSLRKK

[6] = biological target: T6, CHRM1 peptide RKIPKRPGSVHRTPSRQ (SEQ ID NO:83) (not fully specified)
T6 chain: RKIPKRPGSVHRTPSRQ

[7] = biological target: T7, DGKZ peptide KKKKRASFKRKSSKKG (SEQ ID NO:77) (not fully specified)
T7 chain: KKKKRASFKRKSSKKG

[8] = biological target: T8, FLJ20574 peptide GENVLKKSMKSRVKG (SEQ ID NO:113) (not fully specified)
T8 chain: GENVLKKSMKSRVKG

[9] = biological target: T9, LRMP peptide RFSRRSSSWRIL (SEQ ID NO:204) (not fully specified)
T9 chain: RFSRRSSSWRIL

[10] = biological target: T10, MAP3K14 peptide WKGKRRSKARKKRK (SEQ ID NO:100) (not fully specified)
T10 chain: WKGKRRSKARKKRK

[11] = biological target: T11, MARCKS peptide KKKRFSFKKSFKLSGFSFKK (SEQ ID NO:111) (not fully specified)
T11 chain: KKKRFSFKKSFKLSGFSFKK

[12] = biological target: T12, MGC2941 peptide RPTPGDGEKRSRIKKSKKRK (SEQ ID NO:139) (not fully specified)
T12 chain: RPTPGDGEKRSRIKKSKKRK

[13] = biological target: T13, MLK3 peptide QQVDRERPHVRRRRGTFKRS (SEQ ID NO:128) (not fully specified)
T13 chain: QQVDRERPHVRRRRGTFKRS

[14] = biological target: T14, NIK peptide TEGKMARVAWKGKRRSKARK (SEQ ID NO:164) (not fully specified)
T14 chain: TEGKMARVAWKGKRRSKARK

[15] = biological target: T15, PLD1 peptide KYKAFIRIPIPTRRHTFRRQ (SEQ ID NO:161) (not fully specified)
T15 chain: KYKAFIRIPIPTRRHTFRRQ

[16] = biological target: T16, PLEK peptide KFARKSTRRSIRLPE (SEQ ID NO:78) (not fully specified)
T16 chain: KFARKSTRRSIRLPE

[17] = biological target: T17, PPP1R14A peptide QKRHARVTVKYDRRE (SEQ ID NO:107) (not fully specified)
T17 chain: QKRHARVTVKYDRRE

[18] = biological target: T18, PSCDBP peptide LSSMFGTLPRKSRKGSVRKQ (SEQ ID NO:144) (not fully specified)
T18 chain: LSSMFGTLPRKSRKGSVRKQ

[19] = biological target: T19, SPTBN4 peptide EGGDRRASGRRK (SEQ ID NO:110) (not fully specified)
T19 chain: EGGDRRASGRRK

[20] = biological target: T20, SYTL4 peptide RQGKRKTSIKRDTVNPL (SEQ ID NO:87) (not fully specified)
T20 chain: RQGKRKTSIKRDTVNPL

[21] = biological target: T21, Urotensin-2 receptor peptide LYARLARAYRRSQRASFKRA (SEQ ID NO:159) (not fully specified)
T21 chain: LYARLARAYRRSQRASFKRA

[22] = biological target: T22, cyclophilin G peptide TEEKSKKRKKKHRKNSRKHK (SEQ ID NO:165) (not fully specified)
T22 chain: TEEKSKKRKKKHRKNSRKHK

[23] = biological target: T23, dag kinase iota peptide NRKKKRTSFKRKA (SEQ ID NO:115) (not fully specified)
T23 chain: NRKKKRTSFKRKA

[24] = biological target: T24, dag kinase iota peptide NRKKKRTSFKRKA (SEQ ID NO:117) (not fully specified)
T24 chain: NRKKKRTSFKRKA

[25] = biological target: T25, dag kinase iota peptide PQNSLKASNRKKKRTSFKRK (SEQ ID NO:151) (not fully specified)
T25 chain: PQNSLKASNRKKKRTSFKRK

[26] = biological target: T26, fit1 peptide VQMTWSYPDEKNKRASVRRR (SEQ ID NO:158) (not fully specified)
T26 chain: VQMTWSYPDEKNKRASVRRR

[27] = biological target: T27, gravin peptide KKFFTQGWAGWRKKTSFRKP (SEQ ID NO:154) (not fully specified)
T27 chain: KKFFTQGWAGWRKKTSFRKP

[28] = biological target: T28, p164-RhoGEF peptide PRLIRRGSKKRPAR (SEQ ID NO:124) (not fully specified)
T28 chain: PRLIRRGSKKRPAR

[29] = biological target: T29, p164-RhoGEF peptide PRLIRRGSKKRPAR (SEQ ID NO:82) (not fully specified)
T29 chain: PRLIRRGSKKRPAR

[30] = biological target: T30, p47phox peptide QAQRQIKRGAPPRRSSIRNA (SEQ ID NO:146) (not fully specified)
T30 chain: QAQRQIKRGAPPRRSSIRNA

[31] = biological target: T31, phospholemman peptide EEGTFRSSIRRLSTRRR (SEQ ID NO:116) (not fully specified)
T31 chain: EEGTFRSSIRRLSTRRR

[32] = biological target: T32, serine/threonine-protein kinase PRP4 peptide GRRRRSRSKVK (SEQ ID NO:189) (not fully specified)
T32 chain: GRRRRSRSKVK

B1: PKC-theta (protein)
chain: MSPFLRIGLSNFDCGSCQSCQGEAVNPYCAVLVKEYVESENGQMYIQKKPTMYPPWDSTFDAHINKGRVMQIIVKGKNVDLISETTVELYSLAERCRKNNGKTEIWLELKPQGRMLMNARYFLEMSDTKDMNEFETEGFFALHQRRGAIKQAKVHHVKCHEFTATFFPQPTFCSVCHEFVWGLNKQGYQCRQCNAAIHKKCIDKVIAKCTGSAINSRETMFHKERFKIDMPHRFKVYNYKSPTFCEHCGTLLWGLARQGLKCDACGMNVHHRCQTKVANLCGINQKLMAEALAMIESTQQARCLRDTEQIFREGPVEIGLPCSIKNEARPPCLPTPGKREPQGISWESPLDEVDKMCHLPEPELNKERPSLQIKLKIEDFILHKMLGKGSFGKVFLAEFKKTNQFFAIKALKKDVVLMDDDVECTMVEKRVLSLAWEHPFLTHMFCTFQTKENLFFVMEYLNGGDLMYHIQSCHKFDLSRATFYAAEIILGLQFLHSKGIVYRDLKLDNILLDKDGHIKIADFGMCKENMLGDAKTNTFCGTPDYIAPEILLGQKYNHSVDWWSFGVLLYEMLIGQSPFHGQDEEELFHSIRMDNPFYPRWLEKEAKDLLVKLFVREPEKRLGVRGDIRQHPLFREINWEELERKEIDPPFRPKVKSPFDCSNFDKEFLNEKPRLSFADRALINSMDQNMFRNFSFMNPGMERLIS
in vitro phosphorylation (% of best substrate) [1]: 42
in vitro phosphorylation (% of best substrate) [2]: 25
in vitro phosphorylation (% of best substrate) [3]: 38
in vitro phosphorylation (% of best substrate) [4]: 47
in vitro phosphorylation, 1 uM peptide (% of best substrate) [5]: 18
in vitro phosphorylation, 10 uM peptide (% of best substrate) [5]: 23
in vitro phosphorylation (% of best substrate) [6]: 92
in vitro phosphorylation (% of best substrate) [7]: 74
in vitro phosphorylation (% of best substrate) [8]: 10
in vitro phosphorylation (% of best substrate) [9]: 22
in vitro phosphorylation (% of best substrate) [10]: 56
in vitro phosphorylation (% of best substrate) [11]: 18
in vitro phosphorylation, 1 uM peptide (% of best substrate) [12]: 31
in vitro phosphorylation, 10 uM peptide (% of best substrate) [12]: 17
in vitro phosphorylation, 1 uM peptide (% of best substrate) [13]: 41
in vitro phosphorylation, 10 uM peptide (% of best substrate) [13]: 59
in vitro phosphorylation, 1 uM peptide (% of best substrate) [14]: 24
in vitro phosphorylation, 10 uM peptide (% of best substrate) [14]: 20
in vitro phosphorylation, 1 uM peptide (% of best substrate) [15]: 19
in vitro phosphorylation, 10 uM peptide (% of best substrate) [15]: 23
in vitro phosphorylation (% of best substrate) [16]: 47
in vitro phosphorylation (% of best substrate) [17]: 40
in vitro phosphorylation, 1 uM peptide (% of best substrate) [18]: 35
in vitro phosphorylation, 10 uM peptide (% of best substrate) [18]: 22
in vitro phosphorylation (% of best substrate) [19]: 22
in vitro phosphorylation (% of best substrate) [20]: 65
in vitro phosphorylation, 1 uM peptide (% of best substrate) [21]: 21
in vitro phosphorylation, 10 uM peptide (% of best substrate) [21]: 17
in vitro phosphorylation, 1 uM peptide (% of best substrate) [22]: 16
in vitro phosphorylation, 10 uM peptide (% of best substrate) [22]: 14
in vitro phosphorylation, 1 uM peptide (% of best substrate) [23]: 89
in vitro phosphorylation, 10 uM peptide (% of best substrate) [23]: 77
in vitro phosphorylation, 1 uM peptide (% of best substrate) [24]: 84
in vitro phosphorylation, 10 uM peptide (% of best substrate) [24]: 78
in vitro phosphorylation, 1 uM peptide (% of best substrate) [25]: 25
in vitro phosphorylation, 10 uM peptide (% of best substrate) [25]: 19
in vitro phosphorylation, 1 uM peptide (% of best substrate) [26]: 19
in vitro phosphorylation, 10 uM peptide (% of best substrate) [26]: 23
in vitro phosphorylation, 1 uM peptide (% of best substrate) [27]: 34
in vitro phosphorylation, 10 uM peptide (% of best substrate) [27]: 21
in vitro phosphorylation, 1 uM peptide (% of best substrate) [28]: 53
in vitro phosphorylation, 10 uM peptide (% of best substrate) [28]: 57
in vitro phosphorylation (% of best substrate) [29]: 49
in vitro phosphorylation, 1 uM peptide (% of best substrate) [30]: 33
in vitro phosphorylation, 10 uM peptide (% of best substrate) [30]: 34
in vitro phosphorylation, 1 uM peptide (% of best substrate) [31]: 83
in vitro phosphorylation, 10 uM peptide (% of best substrate) [31]: 78
in vitro phosphorylation (% of best substrate) [32]: 43
